In patent US20060045884A1, “Vaccines for autoimmune and infectious disease” (Board of Regents, priority 2004, published 2006):

Molecular target: HLA-A2.1 (HLA-A*0201) with β2-microglobulin on the surface of T2 cells (human)

In the case of KLGEFYNQMM (modifications not checked) [Influenza B nucleoprotein peptide (aa 85-94), P04665 85-94], the Median Channel of Fluorescence of HLA-A2 Expression on T2 (median channel of fluorescence) is reported as 194.
